# According to article PMC3715468, “Structural and Functional Characterisation of TesA - A Novel Lysophospholipase A from Pseudomonas aeruginosa” (PLoS ONE, 2013):
# What was measured:
# Assay in all cases: purified protein
# Assay type in all cases: biochemical, Pseudomonas aeruginosa
# [1] = tested on: CCCCCC(=O)OC[C@@H](O)COP(=O)([O-])OCC[N+](C)(C)C; settings: pH 7.2; 37.0 °C
# [2] = tested on: CCCCCCCCCCCCCCCC(=O)OC[C@@H](O)COP(=O)([O-])OCC[N+](C)(C)C; settings: 20 mM Tris-HCl pH 7.2, 37 °C, 0.25% (v/v) Triton X-100, 1.5 mM NaN3, 30 min
# [3] = tested on: CCCCCCCCCCCC(=O)OC[C@@H](O)COP(=O)([O-])OCC[N+](C)(C)C; settings: pH 7.2; 37.0 °C
substance,measurement,setting,value
TesA (Pseudomonas aeruginosa PAO1),Km,[1],7220 ± 920 µM
same,kcat/Km,[1],110000 M⁻¹ s⁻¹
same,Km,[2],2040 ± 180 µM
same,kcat,[2],921 s⁻¹
same,kcat/Km,[2],450000 M⁻¹ s⁻¹
same,Km,[3],1780 ± 170 µM
same,kcat/Km,[3],1.1e+06 M⁻¹ s⁻¹
